Primed or numbered codes have the meaning given here. The star is where a group is joined. Dabcyl″ = Dabcyl quencher at the N-terminus, CN(C)c1ccc(/N=N/c2ccc(C(=O)*)cc2)cc1; Flu = fluorescein label on the cysteine side chain; Dabcyl′ = CN(C)c1ccc(/N=N/c2ccc(C(=O)*)cc2)cc1; fluorescein = fluorescein label
What was measured:
Type in all cases: biochemical
[1] = biological target: T1, collagenase 3 (Homo sapiens, UniProt P45452); assay: kcat/Km of fluorescence peptide substrates; conditions: for Col-3 Specificity Constant: fluorescence substrate, + Gel = PRIONEX GELATIN 1:250
[2] = biological target: T2, stromelysin 1 (Homo sapiens, UniProt P08254); assay: kcat/Km of fluorescence peptide substrates; conditions: for reduction of substrate selectivity for stromelysin 1 relative to FlSb1: fluorescence substrates; for Strom1 Selectivity v Col-3: fluorescence substrate, + Gel = PRIONEX GELATIN 1:250
[3] = biological target: T1, collagenase 3; assay: Inhibition with type II collagen, FlSub3 cleavage; conditions: Time Period 0.85 to 2.10 Hours; 20 uM FlSub3 with bovine type II collagen
Procedure: In a 96 well plate, collagenase 3 (0.013 nM), collagenase 1 (1.25 nM), stromelysin 1 (0.8 nM), gelatinase A (0.025 nM), or gelatinase B (0.008 nM) were reacted with 20 uM FlSub3 in standard assay buffer in the presence of varying concentrations of bovine type II collagen (0.18-44 ug/ml). The type II collagen, a 1 mg/ml stock in 0.5M acetic acid, was transferred into assay buffer by passing the material through a biospin P6 column from Amersham. The reaction was initiated by addition of substrate to enzyme containing either buffer or an appropriate amount of type II collagen. Data points were taken every 15 min over a period of 15 hours using an excitation and emission wavelength of 350 and 485 nm respectively. The usable data (1-6 hours), was taken and the percent inhibition by type II collagen was calculated for each enzyme and plotted as a function of inhibitor concentration and time in the assay. It should be noted that the percent inhibition varies with time as the bovine substrate is consumed during the reaction course.

[4] = biological target: T3, collagenase 1 (Homo sapiens, UniProt P03956); assay: Cleavage of biglycan and type IV collagen by MMPs (gel); conditions: equal concentration of enzyme as col-3
T3 sequence (P03956 100-469): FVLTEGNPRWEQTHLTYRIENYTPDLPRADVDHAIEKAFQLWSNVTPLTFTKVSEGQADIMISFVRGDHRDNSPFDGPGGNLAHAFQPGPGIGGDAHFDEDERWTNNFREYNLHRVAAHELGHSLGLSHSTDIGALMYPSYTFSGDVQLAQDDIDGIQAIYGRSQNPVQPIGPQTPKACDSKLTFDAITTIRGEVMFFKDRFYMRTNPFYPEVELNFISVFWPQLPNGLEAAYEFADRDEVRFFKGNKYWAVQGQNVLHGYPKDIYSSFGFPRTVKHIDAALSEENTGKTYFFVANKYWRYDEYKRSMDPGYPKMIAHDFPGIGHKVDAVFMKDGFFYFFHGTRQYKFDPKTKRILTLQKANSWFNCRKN
Procedure: (§1) Reactions were carried out on a small scale to optimize the enzyme to full length protein ratios. For biglycan, optimum results were obtained with a ratio of 1:100 (20-40 nM col-3 and 4.3 μM biglycan in a 10 μl reaction). For type IV collagen, best results were found with a ratio of 1:50 (28 nM col-3 and 2 μM type IV collagen). For comparison with the other MMPs, an equal concentration of enzyme was used.

[5] = biological target: T4, gelatinase A (Homo sapiens, UniProt P08253); assay: as above; conditions: earlier experiment
T4 sequence (P08253 110-660): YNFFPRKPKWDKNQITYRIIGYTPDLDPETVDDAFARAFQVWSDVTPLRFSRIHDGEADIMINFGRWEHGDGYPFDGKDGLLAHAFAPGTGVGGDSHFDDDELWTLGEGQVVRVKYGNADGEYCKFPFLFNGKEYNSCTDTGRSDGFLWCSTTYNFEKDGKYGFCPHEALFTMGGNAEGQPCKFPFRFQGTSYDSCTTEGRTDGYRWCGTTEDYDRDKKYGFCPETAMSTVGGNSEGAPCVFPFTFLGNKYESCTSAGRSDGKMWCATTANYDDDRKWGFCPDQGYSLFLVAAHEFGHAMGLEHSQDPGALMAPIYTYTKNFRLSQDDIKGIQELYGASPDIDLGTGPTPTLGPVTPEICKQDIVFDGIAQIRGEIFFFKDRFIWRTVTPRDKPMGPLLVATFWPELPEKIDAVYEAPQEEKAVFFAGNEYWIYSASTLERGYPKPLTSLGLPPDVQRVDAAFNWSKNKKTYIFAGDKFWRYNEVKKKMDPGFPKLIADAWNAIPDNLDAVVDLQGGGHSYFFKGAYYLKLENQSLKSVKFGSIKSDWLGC
Procedure: as §1

[6] = biological target: gelatinase B (Homo sapiens, UniProt P14780); assay: as above; conditions: equal concentration of enzyme as col-3
Procedure: as §1

[7] = biological target: T2, stromelysin 1; assay: as above; conditions: equal concentration of enzyme as col-3
Procedure: as §1

T2 sequence (P08254 100-477): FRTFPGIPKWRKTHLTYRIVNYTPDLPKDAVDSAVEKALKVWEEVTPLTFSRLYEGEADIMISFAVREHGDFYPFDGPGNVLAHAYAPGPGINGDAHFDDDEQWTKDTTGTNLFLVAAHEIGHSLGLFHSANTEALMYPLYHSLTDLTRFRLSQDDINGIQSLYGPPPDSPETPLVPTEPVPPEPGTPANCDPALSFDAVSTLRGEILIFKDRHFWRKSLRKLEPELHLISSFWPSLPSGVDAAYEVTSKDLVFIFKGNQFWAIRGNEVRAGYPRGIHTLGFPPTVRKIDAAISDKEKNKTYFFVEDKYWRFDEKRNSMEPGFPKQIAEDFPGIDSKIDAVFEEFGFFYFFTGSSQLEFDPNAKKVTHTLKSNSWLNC
Chain of gelatinase B (P14780 94-707): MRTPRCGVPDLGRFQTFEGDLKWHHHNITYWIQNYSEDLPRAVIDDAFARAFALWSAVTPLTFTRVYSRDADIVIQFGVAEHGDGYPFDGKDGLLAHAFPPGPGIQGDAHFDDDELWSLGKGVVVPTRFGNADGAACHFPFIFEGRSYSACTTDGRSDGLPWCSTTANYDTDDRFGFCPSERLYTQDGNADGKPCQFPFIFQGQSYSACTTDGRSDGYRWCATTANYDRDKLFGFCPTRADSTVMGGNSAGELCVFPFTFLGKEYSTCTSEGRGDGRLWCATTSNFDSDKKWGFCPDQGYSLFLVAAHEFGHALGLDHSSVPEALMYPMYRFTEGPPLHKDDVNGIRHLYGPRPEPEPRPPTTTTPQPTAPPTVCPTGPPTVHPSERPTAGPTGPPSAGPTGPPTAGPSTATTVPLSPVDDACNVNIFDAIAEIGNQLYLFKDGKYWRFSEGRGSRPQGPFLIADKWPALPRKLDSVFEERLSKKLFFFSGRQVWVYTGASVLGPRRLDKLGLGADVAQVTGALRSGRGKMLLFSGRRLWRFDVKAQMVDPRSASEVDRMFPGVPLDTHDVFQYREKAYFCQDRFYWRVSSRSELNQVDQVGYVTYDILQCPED

In the case of “Dabcyl-GPVNLHGC(Flu)-NH2 ({Dabcyl″}-GPVNLHGC(Flu)-NH2) [FISb3]”, the “Col-3 Specificity Constant” value [1] is reported as 4.21E+05 1/sM, the “reduction of substrate selectivity for stromelysin 1 relative to FlSb1” value [2] is reported as “approximately 10 fold” and the “Col-3 Specificity Constant” value [3] is reported as 1.11E+06 1/sM.

With “Dab-SYPSGIHLC(Flu)LQR-NH2 ({Dabcyl″}-SYPSGIHLC(Flu)LQR-NH2) [FlSb2, fluorescence substrate based on the sulfate transporter]” the “less sensitive for collagenase 3 compared to the consensus substrate” value ([1]; compared to FlSb1) was 100 fold and the “selectivity compared to FlSb1” value ([1]; kcat/Km against the five MMPs) was “less selective”.

In the case of “Dabcyl-GPLGMRGC(Fluorescein)-NH2 ({Dabcyl′}-GPLGMRGC(fluorescein)-NH2) [FISb1]”, the “Strom1 Selectivity v Col-3” value [2] is reported as 707.5 unitless and the “Strom1 Selectivity v Col-3” value ([2]; listed as Fluorescence Substrate 1) is reported as 3665 unitless.

“Dabcyl-GPHPFRGC(Flu)-NH2 ({Dabcyl″}-GPHPFRGC(Flu)-NH2) [FISb4]” was tested, and the “Col-3 Specificity Constant” value [1] was 3.27E+04 1/sM and the “reduction of substrate selectivity for stromelysin 1 relative to FlSb1” value [2] was “approximately 10 fold”.

In the case of “type IV collagen: full length protein digested with collagenase 3 and other MMPs”, the “cleavage of full length protein by collagenase 1” value [4] is reported as “processed”, the “cleavage of full length protein by gelatinase A” value [5] is reported as “No detectable cleavage” and the “cleavage of full length protein by gelatinase B” value [6] is reported as “processed”.

B1: biglycan: proteoglycan, full length protein digested with collagenase 3 and other MMPs (protein, UniProt P21810 38-368, looked up)
Biglycan: DEEASGADTSGVLDPDSVTPTYSAMCPFGCHCHLRVVQCSDLGLKSVPKEISPDTTLLDLQNNDISELRKDDFKGLQHLYALVLVNNKISKIHEKAFSPLRKLQKLYISKNHLVEIPPNLPSSLVELRIHDNRIRKVPKGVFSGLRNMNCIEMGGNPLENSGFEPGAFDGLKLNYLRISEAKLTGIPKDLPETLNELHLDHNKIQAIELEDLLRYSKLYRLGLGHNQIRMIENGSLSFLPTLRELHLDNNKLARVPSGLPDLKLLQVVYLHSNNITKVGVNDFCPMGFGVKRAYYNGISLFNNPVPYWEVQPATFRCVTDRLAIQFGNYKK
In the case of B1, the “cleavage of full length protein by gelatinase B” value [6] is reported as “able to degrade” and the “cleavage of full length protein by stromelysin 1” value [7] is reported as “able to degrade”.

— US7432061B2, “Assays for measuring matrix metalloproteinase activities” (BioZyme, Inc., priority 2002, dated 2008)
